According to PMC5037430, “High throughput cell-based assay for identification of glycolate oxidase inhibitors as a potential treatment for Primary Hyperoxaluria Type 1” (Scientific Reports, 2016):

Substrate: O=C(O)CO
Test: purified protein
Conditions: FMN

B1: glycolate oxidase (GO); hydroxyacid oxidase 1 (HAO1) (Homo sapiens) (protein)
chain: MLPRLICINDYEQHAKSVLPKSIYDYYRSGANDEETLADNIAAFSRWKLYPRMLRNVAETDLSTSVLGQRVSMPICVGATAMQRMAHVDGELATVRACQSLGTGMMLSSWATSSIEEVAEAGPEALRWLQLYIYKDREVTKKLVRQAEKMGYKAIFVTVDTPYLGNRLDDVRNRFKLPPQLRMKNFETSTLSFSPEENFGDDSGLAAYVAKAIDPSISWEDIKWLRRLTSLPIVAKGILRGDDAREAVKHGLNGILVSNHGARQLDGVPATIDVLPEIVEAVEGKVEVFLDGGVRKGTDVLKALALGAKAVFVGRPIVWGLAFQGEKGVQDVLEILKEEFRLAMALSGCQNVKVIDKTLVRKNPLAVSKI
Km: 74.5 µM
